Positions count from the first letter of the chain named.

The nature of data set [1]: Body weight and food intake in C57BL/6 mice, fusion protein conjugates, 30 nmol/kg daily 10 days. The data set is classed as in vivo. The method, then: (§1) 10 week old male C57BL/6 mice were injected everyday subcutaneously with 15 nmol/kg of the fusion protein conjugates (i.e., MLC002, MLC 004, MLC 005, MLC 006, MLC 007, MLC 008, and MLC 009) for 14 days. Food intake and body weight were measured daily and five animals were used for each treatment group. Body weight (BW) was monitored for each individual animal, but food intake for each group animals was measured together. Day 1 and Day 14 are first day and last day of molecule dosage. % BW loss=100*(BW on Day n-BW on Day 1)/(BW on Day 1). Cumulative food intake on Day n represents sum of food intake from Day 1 to Day n. Data are indicated as mean values and standard error (SEM) or pooled values. Statistical analysis was performed by One-way ANOVA. Body weight reduction on Day 11 is calculated by −1*(% BW loss−% BW loss of vehicle group); Cumulative food intake reduction is calculated by −100*(cumulative food intake-cumulative food intake of vehicle)/cumulative food intake of vehicle.
Data were calculated in the same way as described above. Day 1 and Day 10 are first day and last day of the administration.
MLC014 was used as a negative control. MLC014 has an amino acid sequence of SEQ ID NO: 261, which contains a linker fused to the N terminal of GDF15, with a CRM conjugated to the lysine residue in the linker. Tirzepatide was also used as a control.

The nature of data set [2]: Body weight and food intake in C57BL/6 mice, unconjugated fusion proteins, 30 nmol/kg daily 10 days. The data set is classed as in vivo. On the procedure: as §1
As described in the above method, a daily dose of 30 nmol/kg of the unconjugated fusion proteins (i.e., MLC100, MLC023, MLC022, MLC020, MLC003, MLC124, MLC021, MLC019, MLC102) were administered to C57BL/6 for 10 days. Data were calculated as above method. Day 1 and Day 10 are first day and last day of administration.

Data set [3] can be described thus: Pharmacokinetic measurement in mouse, single sc dose 30 nmol/kg, plasma ELISA. The conditions noted are these: for Cmax: read-out: Cmax (nmol/L), single sc dose 30 nmol/kg; for AUC0-24 h / Terminal t1/2 / Tmax: single sc dose 30 nmol/kg. (In an ELISA, binding on a coated surface is turned into a signal by an enzyme label.)
The mark [4] stands for this setting: C57 mice, 30 nmol/kg daily, Day11, unconjugated fusion proteins.

B1: MLC091: fusion polypeptide SEQ ID NO: 380 conjugated with Moiety B at 35C of Linker (conjugate)
chain: HGEGTFTSDVSSYLEEQAAKEFIAWLVRGGGGAQPGAQPGAQPGAQPGAQPGAQPGAQPGAQPGQCPGAQPGQEPGAQPGQEPGAQPGQEPGAQPGQEPGAQPGQEPGAQPARQGDHCPLGPGRCCRLHTVRASLEDLGWADWVLSPREVQVTMCIGACPSQFRAANLHAQIKTSLHRLKPDTVPAPCCVPASYNPMVLIQKTDTGVSLQTYDDLLAKDCHCI
modifications: Moiety B conjugated at linker Cys35
Regarding B1, in data set [1], the “Body weight reduction at 30 nmol/kg (% reduction compared to vehicle)(Day11)” value is given as 22.7% and the “Cumulative food intake reduction at 30 nmol/kg (% reduction compared to vehicle)(Day11)” value came out at 38.1%.

B2: MLC087: fusion polypeptide SEQ ID NO: 378 conjugated with Moiety B at 41C of Linker (conjugate)
chain: B1 chain with C66E, G72C
modifications: Moiety B conjugated at linker Cys41
For the molecule B2, in data set [1], the “Body weight reduction at 30 nmol/kg (% reduction compared to vehicle)(Day11)” value is recorded as 22.7% and the “Cumulative food intake reduction at 30 nmol/kg (% reduction compared to vehicle)(Day11)” value amounted to 31.8%.

B3: MLC092: fusion polypeptide SEQ ID NO: 380 conjugated with Moiety C at 35C of Linker (conjugate)
chain: B1 chain
modifications: Moiety C conjugated at linker Cys35
Take B3: in data set [1], the “Body weight reduction at 30 nmol/kg (% reduction compared to vehicle)(Day11)” value is 22.2% and the “Cumulative food intake reduction at 30 nmol/kg (% reduction compared to vehicle)(Day11)” value was 33.9%.

B4: MLC088: fusion polypeptide SEQ ID NO: 378 conjugated with Moiety C at 41C of Linker (conjugate)
chain: B1 chain with C66E, G72C
modifications: Moiety C conjugated at linker Cys41
Turning to B4, in data set [1], the “Body weight reduction at 30 nmol/kg (% reduction compared to vehicle)(Day11)” value turned out to be 22.4% and the “Cumulative food intake reduction at 30 nmol/kg (% reduction compared to vehicle)(Day11)” value is recorded as 34.8%.

B5: MLC124: unconjugated GLP-1/GDF15 fusion protein, linker of at least 60 residues (protein)
chain: HGEGTFTSDVSSYLEEQAAKEFIAWLVRGGGGQEPGAQPGQEPGAQPGQEPGAQPGQEPGAQPGQEPGAQPGQEPGAQPGAQPGAQPGAQPARQGDHCPLGPGRCCRLHTVRASLEDLGWADWVLSPREVQVTMCIGACPSQFRAANLHAQIKTSLHRLRPDTVPAPCCVPASYNPMVLIQRTDTGVSLQTYDDLLARDCHCI
For B5, in data set [2] (setting [4]), the “Body weight reduction at 30 nmol/kg (% reduction compared to vehicle)(Day11)” value is recorded as 23.0% and the “Cumulative food intake reduction at 30 nmol/kg (% reduction compared to vehicle)(Day11)” value is recorded as 38.0%. Further, the “in vivo efficacy (food intake and body weight reduction)” value in data set [2] (unconjugated fusion proteins, 30 nmol/kg daily 10 days, by linker length) is recorded as “the most significant results among all the tested fusion proteins”.

B6: MLC017: fusion polypeptide SEQ ID NO: 264 conjugated with Moiety A at 55K of Linker (conjugate)
chain: HGEGTFTSDVSSYLEEQAAREFIAWLVRGGGGQEPGAQPGQEPGAQPGQEPGAQPGQEPGAQPGQEPGAQPGQEPGAQPGAQPGAKPGAQPGAQPGAQPGAQPGAQPGAQPARQGDHCPLGPGRCCRLHTVRASLEDLGWADWVLSPREVQVTMCIGACPSQFRAANLHAQIKTSLHRLRPDTVPAPCCVPASYNPMVLIQRTDTGVSLQTYDDLLARDCHCI
modifications: Moiety A conjugated at linker K55
Usually Tmax stands for the time at which the peak concentration occurs. Regarding B6, in data set [1], the “Body weight reduction at 30 nmol/kg (% reduction compared to vehicle)(Day11)” value was 25.4% and the “Cumulative food intake reduction at 30 nmol/kg (% reduction compared to vehicle)(Day11)” value is recorded as 52.3%. Also, in data set [3], the Cmax worked out at 29.4 nmol/L, the “AUC0-24 h” value turned out to be 0.4385 µM·h, the “Terminal t1/2” value was 11.1 h and the “Tmax” value came out at 7.3 h.

B7: MLC084: fusion polypeptide SEQ ID NO: 376 conjugated with Moiety C at 39C of Linker (conjugate)
chain: B6 chain with R20K, A69Q, Q70C, K86Q, R180K, R202K, R218K
modifications: Moiety C conjugated at linker Cys39
Consider B7, for which, in data set [1], the “Body weight reduction at 30 nmol/kg (% reduction compared to vehicle)(Day11)” value is 20.7% and the “Cumulative food intake reduction at 30 nmol/kg (% reduction compared to vehicle)(Day11)” value is 36.2%.

B8: MLC086: fusion polypeptide SEQ ID NO: 377 conjugated with Moiety C at 37C of Linker (conjugate)
chain: B6 chain with R20K, G68C, A69Q, Q70A, K86Q, R180K, R202K, R218K
modifications: Moiety C conjugated at linker Cys37
As to B8, in data set [1], the “Body weight reduction at 30 nmol/kg (% reduction compared to vehicle)(Day11)” value was 24.4% and the “Cumulative food intake reduction at 30 nmol/kg (% reduction compared to vehicle)(Day11)” value amounted to 34.8%.

B9: MLC083: fusion polypeptide SEQ ID NO: 376 conjugated with Moiety B at 39C of Linker (conjugate)
chain: B6 chain with R20K, A69Q, Q70C, K86Q, R180K, R202K, R218K
modifications: Moiety B conjugated at linker Cys39
With B9, in data set [1], the “Body weight reduction at 30 nmol/kg (% reduction compared to vehicle)(Day11)” value stood at 21.6% and the “Cumulative food intake reduction at 30 nmol/kg (% reduction compared to vehicle)(Day11)” value stood at 50.5%.

B10: MLC085: fusion polypeptide SEQ ID NO: 377 conjugated with Moiety B at 37C of Linker (conjugate)
chain: B6 chain with R20K, G68C, A69Q, Q70A, K86Q, R180K, R202K, R218K
modifications: Moiety B conjugated at linker Cys37
For B10, in data set [1], the “Body weight reduction at 30 nmol/kg (% reduction compared to vehicle)(Day11)” value stood at 23.8% and the “Cumulative food intake reduction at 30 nmol/kg (% reduction compared to vehicle)(Day11)” value turned out to be 40.1%.

B11: MLC074: fusion polypeptide SEQ ID NO: 369 conjugated with Moiety B at 41C of Linker (conjugate)
chain: B6 chain with R20K, G72C, K86Q, R180K, R202K, R218K
modifications: Moiety B conjugated at linker C41
For the molecule B11, in data set [1], the “Body weight reduction at 30 nmol/kg (% reduction compared to vehicle)(Day11)” value is recorded as 20.0% and the “Cumulative food intake reduction at 30 nmol/kg (% reduction compared to vehicle)(Day11)” value came out at 39.9%. In addition, in data set [3], the Cmax worked out at 102 nmol/L, the “AUC0-24 h” value came to 1.8247 µM·h, the “Terminal t1/2” value is 18.0 h and the time to peak (Tmax) was 10.7 h.

B12: MLC075: fusion polypeptide SEQ ID NO: 369 conjugated with Moiety C at 41C of Linker (conjugate)
chain: B6 chain with R20K, G72C, K86Q, R180K, R202K, R218K
modifications: Moiety C conjugated at linker C41
Turning to B12, in data set [1], the “Body weight reduction at 30 nmol/kg (% reduction compared to vehicle)(Day11)” value is 20.7% and the “Cumulative food intake reduction at 30 nmol/kg (% reduction compared to vehicle)(Day11)” value is recorded as 46.2%. In data set [3], the Cmax came out at 69.8 nmol/L, the “AUC0-24 h” value was 1.2753 µM·h, the “Terminal t1/2” value was 20.4 h and the time of peak concentration (Tmax) was 13.3 h.

B13: MLC081: fusion polypeptide SEQ ID NO: 374 conjugated with Moiety C at 35C of Linker (conjugate)
chain: B6 chain with R20K, E66C, A81Q, Q82E, K86Q, R180K, R202K, R218K
modifications: Moiety C conjugated at linker Cys35
On to B13, for which, in data set [1], the “Body weight reduction at 30 nmol/kg (% reduction compared to vehicle)(Day11)” value is 21.5% and the “Cumulative food intake reduction at 30 nmol/kg (% reduction compared to vehicle)(Day11)” value was found to be 39.0%.

The values above are taken from US11453711B2, “Fusion proteins of GLP-1 and GDF15 and conjugates thereof” (BEIJING QL BIOPHARMACEUTICAL CO., LTD., priority 2019, dated 2022).
